According to paper PMC4370744, “Expression and purification of functional human glycogen synthase-1:glycogenin-1 complex in insect cells” (Protein Expression and Purification, 2015):

Molecular target: T1, human glycogenin-1 (GN1), GST removed by PreScission protease (human, UniProt P46976 1-350, glycosylated (degree of glycosylation modest))
T1 construct: human glycogenin-1 (GN1), NM 004130; released from GST at the PreScission site; the introduction speaks of a complete full-length complex; Same construct as m2 after cleavage; source: Sf9, co-expressed with GYS1; purified with GYS1 (glutathione Sepharose, eluted by GST-tagged PreScission protease, Superdex 200)
T1 sequence (looked up): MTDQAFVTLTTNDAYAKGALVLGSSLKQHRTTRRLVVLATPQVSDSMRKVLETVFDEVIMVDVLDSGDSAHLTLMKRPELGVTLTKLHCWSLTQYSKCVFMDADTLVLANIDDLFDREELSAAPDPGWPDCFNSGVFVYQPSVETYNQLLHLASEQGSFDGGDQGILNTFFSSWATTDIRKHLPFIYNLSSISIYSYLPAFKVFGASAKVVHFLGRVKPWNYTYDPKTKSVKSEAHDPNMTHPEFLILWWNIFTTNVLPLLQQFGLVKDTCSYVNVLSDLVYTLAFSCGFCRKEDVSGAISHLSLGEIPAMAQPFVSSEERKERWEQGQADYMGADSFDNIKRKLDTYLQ
Test: SEC; analytical: purified GYS1:GN1 (5 ug) on Superdex 200 3.2/300, 20 mM TES pH 7.4, 150 mM KCl, 1 mM DTT; apparent MW against protein standards
Conditions: both partners purified

B1: human muscle glycogen synthase (GYS1) (enzyme, UniProt P13807 1-737, looked up)
chain: MPLNRTLSMSSLPGLEDWEDEFDLENAVLFEVAWEVANKVGGIYTVLQTKAKVTGDEWGDNYFLVGPYTEQGVRTQVELLEAPTPALKRTLDSMNSKGCKVYFGRWLIEGGPLVVLLDVGASAWALERWKGELWDTCNIGVPWYDREANDAVLFGFLTTWFLGEFLAQSEEKPHVVAHFHEWLAGVGLCLCRARRLPVATIFTTHATLLGRYLCAGAVDFYNNLENFNVDKEAGERQIYHRYCMERAAAHCAHVFTTVSQITAIEAQHLLKRKPDIVTPNGLNVKKFSAMHEFQNLHAQSKARIQEFVRGHFYGHLDFNLDKTLYFFIAGRYEFSNKGADVFLEALARLNYLLRVNGSEQTVVAFFIMPARTNNFNVETLKGQAVRKQLWDTANTVKEKFGRKLYESLLVGSLPDMNKMLDKEDFTMMKRAIFATQRQSFPPVCTHNMLDDSSDPILTTIRRIGLFNSSADRVKVIFHPEFLSSTSPLLPVDYEEFVRGCHLGVFPSYYEPWGYTPAECTVMGIPSISTNLSGFGCFMEEHIADPSAYGIYILDRRFRSLDDSCSQLTSFLYSFCQQSRRQRIIQRNRTERLSDLLDWKYLGRYYMSARHMALSKAFPEHFTYEPNEADAAQGYRYPRPASVPPSPSLSRHSSPHQSEDEEDPRNGPLEEDGERYDEDEEAAKDRRNIRAPEWPRRASCTSSTSGSKRNSVDTATSSSLSTPSEPLSPTSSLGEERN
modifications: heavily phosphorylated: phospho-T54, T372, S412, S486, S641, S645, S647, S652, S653, S657, S710, S727 (LC-MS), S8/S11 (immunoblot); about 6 mol phosphate per mol total protein (GYS1 + GN1)
notes: human muscle glycogen synthase GYS1, NM 002103, UniProt P13807; no tag; the introduction speaks of a complete full-length complex; tryptic peptides up to residue 737 were found; the methods say only 'genes coding for human GYS1'; also called glycogen synthase-1; GYSb (native, phosphorylated form); source: Sf9, co-expressed with GST-tagged GN1 from a bicistronic pFastBac-Dual baculovirus; in …
- stoichiometry N: ~1 GYS1 per GN1 (printed as 4:4)
